According to PMC3390401, “Phosphorylation-Dependent Interactions between Crb2 and Chk1 Are Essential for DNA Damage Checkpoint” (PLoS Genetics, 2012):
One block for each molecule: values may come before it. Non-standard residues stand in square brackets, D forms with d. No end group written: not given here. pS = N[C@@H](COP(=O)(O)O)C(=O)O

Tests used:
Chk1 = Chk1 (UniProt P34208); experiment: biotin-peptide streptavidin pull-down, Coomassie or immunoblot
[1] = target: Crb2(67–85)pT73pS80 peptide (S. pombe) (UniProt P87074); experiment: pull-down; Eluted Chk1-YFH incubated with 2 µg biotin-labeled peptide at 4°C for 2 h, peptides captured on streptavidin Dynabeads M-280, washed with lysis buffer (50 mM Hepes pH 7.5, 100 mM NaCl, 1 mM EDTA, 10% glycerol, 0.05% NP-40); eluates and input on 4%–20% SDS-PAGE, Coomassie staining
[2] = target: Crb2(67–85)pT73 peptide (S. pombe) (UniProt P87074); experiment: pull-down; Same peptide pull-down repeated; eluates and serial dilutions of Chk1-YFH input examined by immunoblotting with an anti-GFP antibody
[3] = target: Crb2(67–85)pT73pS80 peptide (S. pombe) (UniProt P87074); experiment: as above
[4] = target: Crb2(67–85)pS80 peptide (S. pombe) (UniProt P87074); experiment: as above
[5] = target: Crb2(67–85) peptide, unphosphorylated (S. pombe) (UniProt P87074); experiment: as above
His-GST-Crb2(521–778) = target: T1, His-GST-Crb2(521–778) (S. pombe, UniProt P87074 521-778); experiment: pull-down; His-GST-Crb2(521–778) incubated with H2A peptides, peptides pulled down by streptavidin Dynabeads, eluted by boiling in SDS loading buffer; 4%–20% SDS-PAGE, Coomassie staining; settings: both partners purified
T1 construct: Crb2, S. pombe, residues 521-778 (the BRCT domains); also called BRCTs in Crb2; source: E. coli, purified with Ni-NTA beads; not shown: His, N-terminal, kept; GST, N-terminal, kept
T1 sequence (looked up): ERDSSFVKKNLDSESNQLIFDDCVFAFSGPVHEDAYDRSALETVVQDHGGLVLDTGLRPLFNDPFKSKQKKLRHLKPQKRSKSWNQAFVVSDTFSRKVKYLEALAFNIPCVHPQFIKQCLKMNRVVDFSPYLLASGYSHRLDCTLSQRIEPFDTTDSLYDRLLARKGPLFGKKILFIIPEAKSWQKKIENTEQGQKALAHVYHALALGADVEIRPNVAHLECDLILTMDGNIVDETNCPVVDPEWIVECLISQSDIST

Molecule: YFP-Flag-His6 (YFH)-tagged Chk1 (from UniProt P34208 1-496) (enzyme)
percent of input pulled down (% of the input) [1]: > 5
percent of input pulled down (% of the input) [2]: 7
percent of input pulled down (% of the input) [3]: 7
percent of input pulled down (% of the input) [4]: 1
percent of input pulled down (% of the input) [5]: < 0.08

Molecule: Crb2 67-85 (from UniProt P87074) pS80 peptide
other: share of Chk1 input pulled down (Chk1; reference: unphosphorylated peptide, sites S80): gained; reference lower than 0.08%

B1: Hta1(120–132-pS129) peptide (peptide, UniProt P04909 120-132, looked up)
peptide: KTSGRTGKP[pS]QEL
notes: Histone H2A Hta1, S. pombe, residues 120-132; also called γH2A peptide; phosphorylated histone H2A peptide
binding result (His-GST-Crb2(521–778)): binds

Continued, values first:

other: share of Chk1 input pulled down (Chk1; reference: pS80 peptide, sites T73): stronger; reference about 1%
other: share of Chk1 input pulled down (Chk1; reference: pT73 peptide, sites S80): same; reference about 7%
Molecule: Crb2 67-85 (from UniProt P87074) pT73pS80 peptide

other: share of Chk1 input pulled down (Chk1; reference: unphosphorylated peptide, sites T73): gained; reference lower than 0.08%
Molecule: Crb2 67-85 (from UniProt P87074) pT73 peptide
